From the nanobody polyreactivity screen of Harvey et al. (2022)

Assay: yeast display, Sf9 membrane polyspecificity reagent, FACS + sequencing; frameworks hold sequencing errors
How it was run: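 A nanobody's polyreactivity label depends on the gate it was sorted from. Yeast display cells were stained with 10% biotinylated, detergent-solubilized Sf9 membrane reagent for 1 hour at 4 °C, enriched on streptavidin microbeads and sorted by FACS. The low and high (top ~1%) gates were set on anti-HA fluorescence for expression and streptavidin fluorescence for reagent binding.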

| Sequence | polyreactivity (PSR sort gate) |
| --- | --- |
| QVQIVESGGGLVQAGGSLRLSCAASGFIFQTNVMGWYRQAPGKERELVAAISSGDSTYYADSVKGRFTISRDNAKNTVYLQMNSLKPEDTAVYYCAADVLGTTTTVGGFNYWGQGTQVTVSS | low polyreactivity |
| QVQLVESRGGLVQAGGSLRLSCAASGFILSWYAMGWYRQARGKERELVAAISTSGDSTYYADSVKGRFTISRDNAKNTVYVQMNRLKPEDTAVYYCAAVKVSAGTSRGYYYWGPGTQVTVSS | high polyreactivity |
| QVQLVESGGGLVQAGGSLRLSCAASGSTFGYAMGWYRQAPGKERELVAAITSTGGSTYYADSVKGRFTISRDNAKNTVYLQKNSLKPEDTAVYDCAADAYWIRSRFLYRMRSNSWGQGTQVTVSS | high polyreactivity |
| QVQLVESGGGLVQAGGSLRLSCAASGSIFEQYTMGWYRQAPGKERELVAAISYSGGRTYYADSVKGRFTISRDNAKNTVYLQMNSLKPEDTAVYYCATRGRDRRIYGYWGQGTQVTVSS | high polyreactivity |
| QVQLVESGGGLVQAGGSLRLSCAASGSTFHYYAMGWYRQAPGKERELVAAISKRGTSTYYADSVKGRFTISRDNAKNTVYLQMNSLKPEDTSVYYCNRYPIRYKHRGLDYWGHGTQVTVSS | high polyreactivity |
| QVQLVESWGGLVQAGGSLRLSCAASGSIFPWYAMGWYREAPGKERELVAAISKSGAGTYYADSVKGRFTISRDNAKNTVYLQMNSLKPEDTAVYYCNAVYRKTSYGYWGQGTQVTVSS | high polyreactivity |
| QVQLVESGGGLVQAGGSLRLSCAASGSTIEDYAMGWYRQAPGKERELVAAITSGDSTNYADSVKGRFTISRDNAKNTVYLQMISLKPEDTAVYYCFDLSNRYAVRYDYWGQGTQVTVSS | high polyreactivity |
| QVQLVESGGGLVQAGGSLRLSCAASGRTFLAYAMGWYRQAPGKERELVAAISKSGGRTYYADSVKGRFTISRDNAKNTVYLQMNSLKPEDTAVYYCAADKQAYVTDDYWGQGTQVTVSS | high polyreactivity |
| QVQLVESGGGLVQAGGSLRLSSAASGRTFRYYAMRWYRQAPAKERELVAAINRGGSTYYGDSVKGRFTISRDNAKNTVYLQMNSLKPVDTAVYYCNVDKYRIVGFHTPYDYWGQGTQVTVSS | high polyreactivity |
| QVQLVESGGGLVQAGGSLRLSCAASGRIFSYNAMGWYRQAPGKERELVAAITFSGGGTYYADSVKGRFTISRDNAKYTVYLQMNSLKPEDTAVYYCNKVSYGYSTYGYWGQGTQVTVSS | low polyreactivity |
| QVQLVESVGGLVQAGGSLRLSCAASGSNFSKKTMGGSRQAHGKERELVAAITTRGSSTYYADSVKGRFTISRDNAKNTVYLQMNSLKPVDTAVYYCNAPYRVTGGRYRWYDYWGQGTQVTVSS | high polyreactivity |
| QVQLVESGGGLDQAGGSLRLSCAASGFTFVDYDIGWYRQATGKERELVAAITYSGGSTSYADSVKGRFTISRDNSKTTFYLQMNSLKPEDTAVYYCAGEPVGEIMDYWGQGTQVTVSS | low polyreactivity |
| QVQLVESGQGLVQAGGSLRLSCAASGFTFWGYTMGWYRQAPGKERELVAGITLSGGSTYYADSVKGRFTISRDNAKNTVYLEMNSLKPEDTAVYYCAAKPYQVSSYDFSLRDYWGQGTQVTVSS | low polyreactivity |
| QVQLVESGGGIVQAGGSLRLSCAASGRIFKWNAMGWYRQAPGKERELVAAISTSRGNTYYADSVKGRFTSSRDYAKNTVYLLMNSLKPEDTAGYYCAATYPISLRQVGYWGQATQVTVSS | high polyreactivity |
| QDQLVESGVGLVQAGGSLRLSCAASGRTYFSHTMGWYRQAPGKERQLVAAITRSGGTTYYADSVKGRFTISRDNAKNTVYLQMNSLKPEDTAVYYCAARTSYAFYYPRDYWGQGTQVTVSS | high polyreactivity |
| QVQLVESGGGLVQAGGSLRLSCAASGSIFAWYGMGRYRQAPGIERELVAAITTAGSTNYADSVKGRFTISRDNAKNTVYLHMNSLKPEDTAVYYCATATPYVSLKDAHDYGGQGTQVTVSS | low polyreactivity |
| QVQLVESGGGLVQAGGSLRLSCAASGITLGRYSMGLYRQAPGKVRELVAVISDSGGSTYYADSVKGRFTISRDNAKNTVYLQMNSLKPEYTAVYYCARRFDRYPRYYYWGQGTQVTVSS | high polyreactivity |
| QVQLVESGGGLVQAGGSLRLSCAASGFTFRYNAMGWYRQAPGKERELVAAITYRGGSTYYADSVKGRFTISRDNAKNTVYLQMNSLKPEDTAVYYCAAVGDLWGYYWGQGSQVTVSS | low polyreactivity |
| QVQLVESGGGLVQAGGSLRLSCAASGIIFVYYDMGWYRQAPGKERELVASISRGGSTNYADSVKGRFTISRDNAKNTVYLQMNSLKPEDTAVYYCAAGSYSILVHLVRYYYWGQGTQVTVSS | high polyreactivity |
| QVQLVESGGGLVQAGGSLRLSCAASGRIYGFNTMGWYRQAPGKERELVAAITTSGVSTYYADSVKGRFTISRDNAKNTVYLQMNSLKPEDTAVYYCAARWYRTGPYKRRDYWGQGTQVTVSS | high polyreactivity |
| QVQLVESGGGLVQAGGSLRLSCAASGRIFEYAMGWYRQAPGKERELVAGITRSSSTNYADSVKGRFTISRDNAKNTVYLQKNSLKPEDTAVYYCNAESRSWYLYHYDYWGQGTQVTVSS | low polyreactivity |
